The values that follow are results of earlier work, collected in PMC6627431.

Among the targets are KV1.3 (UniProt P22001); KV1.2 (UniProt P16389); KV1.1 (UniProt Q09470).
UniProt Q09470, sequence (Q09470 whole entry): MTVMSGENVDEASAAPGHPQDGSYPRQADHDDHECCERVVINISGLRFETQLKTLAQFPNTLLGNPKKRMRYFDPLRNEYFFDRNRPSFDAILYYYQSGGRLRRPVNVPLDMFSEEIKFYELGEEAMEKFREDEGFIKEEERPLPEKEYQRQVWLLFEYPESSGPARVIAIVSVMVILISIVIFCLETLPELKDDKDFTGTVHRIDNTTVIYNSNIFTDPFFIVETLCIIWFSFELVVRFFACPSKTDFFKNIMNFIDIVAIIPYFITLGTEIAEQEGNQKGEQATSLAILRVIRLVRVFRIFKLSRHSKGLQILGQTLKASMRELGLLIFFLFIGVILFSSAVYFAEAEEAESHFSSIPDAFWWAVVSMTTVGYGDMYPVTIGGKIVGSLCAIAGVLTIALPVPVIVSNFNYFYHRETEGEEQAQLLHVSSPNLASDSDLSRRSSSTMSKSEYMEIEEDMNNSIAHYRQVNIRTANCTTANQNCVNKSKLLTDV
UniProt P16389, sequence (P16389 whole entry): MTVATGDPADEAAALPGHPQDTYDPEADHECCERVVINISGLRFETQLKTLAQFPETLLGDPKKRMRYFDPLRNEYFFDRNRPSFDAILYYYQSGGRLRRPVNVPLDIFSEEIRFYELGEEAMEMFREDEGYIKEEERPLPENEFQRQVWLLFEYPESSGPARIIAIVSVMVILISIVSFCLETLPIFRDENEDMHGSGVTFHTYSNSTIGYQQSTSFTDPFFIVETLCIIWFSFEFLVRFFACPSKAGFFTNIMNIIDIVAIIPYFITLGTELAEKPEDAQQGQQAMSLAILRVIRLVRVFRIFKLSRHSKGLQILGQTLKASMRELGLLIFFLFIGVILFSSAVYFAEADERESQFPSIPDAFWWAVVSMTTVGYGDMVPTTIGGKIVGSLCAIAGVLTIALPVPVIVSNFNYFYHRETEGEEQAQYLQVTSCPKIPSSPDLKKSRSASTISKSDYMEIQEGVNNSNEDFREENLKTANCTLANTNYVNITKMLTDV
UniProt P22001, sequence (P22001 whole entry): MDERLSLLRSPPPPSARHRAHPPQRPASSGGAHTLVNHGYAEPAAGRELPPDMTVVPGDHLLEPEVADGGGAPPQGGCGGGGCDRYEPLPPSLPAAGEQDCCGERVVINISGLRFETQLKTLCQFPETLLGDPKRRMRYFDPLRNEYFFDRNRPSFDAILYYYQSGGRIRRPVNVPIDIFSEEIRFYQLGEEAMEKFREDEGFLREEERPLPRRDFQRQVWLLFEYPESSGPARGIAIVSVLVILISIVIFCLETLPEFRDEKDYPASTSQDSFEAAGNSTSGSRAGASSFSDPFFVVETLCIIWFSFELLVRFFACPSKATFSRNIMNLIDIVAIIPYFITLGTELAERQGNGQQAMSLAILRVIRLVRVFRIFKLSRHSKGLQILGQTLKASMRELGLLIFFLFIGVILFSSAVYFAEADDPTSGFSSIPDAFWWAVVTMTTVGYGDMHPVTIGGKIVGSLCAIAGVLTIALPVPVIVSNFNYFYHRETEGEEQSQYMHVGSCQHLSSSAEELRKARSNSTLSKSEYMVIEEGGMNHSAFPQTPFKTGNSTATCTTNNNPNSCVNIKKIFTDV

One may read the Kd as the equilibrium constant for the complex coming apart. With BgK (from UniProt P29186), the Kd with KV1.3 is 10 nM; with KV1.2, 15 nM; in the data set with KV1.1, 6 nM.
